Assay: soluble on expression in E. coli; label from the status in PepcDB or PDB records

Sequence | soluble on expression in E. coli
MYTLLLVDDEERMLDLLELYLAPNGYRCVKRRSGAEAIDYLRRHHADLVLLDVMMPELDGWETCRRIRSFSNVPIMMVTARDETADIVQGLKIGADDYVTKPFDEAELLARIEAVLRRTAGGRSAIRAAGLVWDEEEHTVRYEDKPIALTPKEFAILGLLLKHPNQVFSRGQIIASLWGYLADTEERTVDSHMKNIREKLRKAGFPADEYLQTVWGVGYKWEGRKS | soluble
MSRIVNVKLSLKRYEYEKPFHITGSVSSESRNVEVEIVLESGVKGYGEASPSFRVNGERVEALLAIENAVREMITGIDVRNYARIFEITDRLFGFPSLKAAVQFATLDALSQELGTQVCYLLGGKRDEIETDKTVGIDTVENRVKEAKKIFEEGFRVIKIKVGENLKEDIEAVEEIAKVTRGAKYIVDANMGYTQKEAVEFARAVYQKGIDIAVYEQPVRREDIEGLKFVRFHSPFPVAADESARTKFDVMRLVKEEAVDYVNIKLMKSGISDALAIVEIAESSGLKLMIGCMGESSLGINQSVHFALGTGAFEFHDLDSHLMLKEEVFRGKFIQDGPRMRVKDQ | soluble
MGSDKIHHHHHHMTKHASARKFPPRARFLPKCEPSLYHERRSVSARASGPTTVIDPKTVTDVTNDTLSHYALPAYPAEQFCVDIGANAGDPIGILDDLVMDDIYELTSDARLRRLAFGVSTEGTITLHSESEMGQDGARLHLDCAVTLMPDLGSAIEALIAVEVDNEGLIARLYLIPQAPLAQGTGYRLVRASREPVWTRLAQLSCVAFSRGTHITMGTGEQRPIEMLRAGDRVLTRNSGARRITWVGHTTVRAVGEMAPILIRQGALNNARDLLVSPDHRLMIYQRSDALGAGRNELMIRARDLVNGDSVVVQDGGFVDYYQILFDRHHIIYAEGIAAESMLVDPVTRPALPEEVQQRLTQPRRHGTRGDHGLEIRRPMLSHPDTVDLLKRASLR | not soluble
MVLDSGTQVYEQAPPRPPAGSPSQHHKLKPSNGNGPPLYPWPESLGMPLALAVPSALQQQTMWQTFSKLHLEQSSHMRRSESTYSVNSTGRRGRGKAPIGRGCDPGGTLRPAASLPHIAKIRKDVGSSSSKSPCMLVALRPTNMDQEREKFFQSHYTYNPQFEYQEPMPMSVLEKYQEASAQFMNQAVGIIEAVLEKFGTYENFEAATGGQLLTKCQIWSTVRKYMQKEGCVGEIVVQLSEDLLSQAVMMVENSRPTLAINLTGARQYWLEGMLRHEIGTHYLRGVNNSRQPWHSTEGRLQYGLQPANPTEEGLASLHSVLFRKQPFLWRAALLYYTIHQAAHMSFRQLFQDLAQYVQDEGVRWEYCVRAKRGQTDTSQPGCFSKDQVYLDGILRILRHRHTIDFQLLTSLGKVSYEDVEQLRPYGVLDNTRVPHFMKDLERYRQQLEHIMTTNRLDEAELGRLLPD | soluble
MGQNSSQIPEHELEHLSIESGLSRGGILKLYGRFISLATHRDKTTNEYFLTKGDFQSIAELKQNPLGDRIIDAFFADAEVLERRKVYFKDFVKVLSHFRPINKNKPHPWNSREAKLRFAFTMYDLNKSGTITKDEFQDILAMMIGVGVPKDQVNSIADRTMREADRDGDGFITFQEFCNAMEKTDIEQKMSFRFLT | not soluble
MGSDKIHHHHHHMSGHKCYPWDLQDRYAQDKSVVNKMQQKYWETKQAFIKATGKKEDEHVVASDADLDAKLELFHSIQRTCLDLSKAIVLYQKRICFLSQEENELGKFLRSQGFQDKTRAGKMMQATGKALCFSSQQRLALRNPLCRFHQEVETFRHRAISDTWLTVNRMEQCRTEYRGALLWMKDVSQELDPDLYKQMEKFRKVQTQVRLAKKNFDKLKMDVCQKVDLLGASRCNLLSHMLATYQTTLLHFWEKTSHTMAAIHESFKGYQPYEFTTLKSLQDPMKKLVEKEEKKKINQQESTDAAVQEPSQLISLEEENQRKESSSFKTEDGKSILSALDKGSTHTACSGPIDELLDMKSEEGACLGPVAGTPEPEGADKDDLLLLSEIFNASSLEEGEFSKEWAAVFGDGQVKEPVPTMALGEPDPKAQTGSGFLPSQLLDQNMKDLQASLQEPAKAASDLTAWFSLFADLDPLSNPDAVGKTDKEHELLNA | not soluble
MSKRQSSLMSFFTKTPKSEKPEEEVKEKSVEEPKSLKNDTPKISNDSEKKVLKRSNSKTVSSPVKTPRNASKRPKVVVCSSSEGEDDDGDEDFEMKEAEEHESSDESEADENASDCEVVESPESTPQSTPKRGGKKKISKPLLAENTPKSVKMAGKSKKVIPDGEAVSMAGVLDKMDKIMDGEGERKRIVEKTTGAKNKAVELEPAERFDHESFDFLKPDKIRDGFKRPMSDPEYDPKTLWVPPDFHQKQTPGHRQWWTMKSQHFDTILLFKVGKFYETYHMDAVEVVRALNIAFMRGSYAHAGFPEHAASKFADQLMNHGYKVARIEQTETPQMLEERNQKTKTKEKVVRREVCRVTSNGTRTYGVLDGVDLGSASSTLDPTAKHLLAIKEFHNPETGKSSYGVCMIDTTTAHIRIGQFEDDDYRSQLRTLLANVIVVQAIVERGSISSTTKSIINGILFSVPVEHLLPKKQFMTAEDVVRIVSNEDYYGSDASEWPEVLKGMLEDSSILPKPSTDWQLALSAFGAIFWYLRDSLIDVDMLSMRNVTIYNSNSMENDQKKEKIDWNGKNLILDGTALENLNIVPNGRDSHLTSLYYVINKCSTPFGRRLLRSWLLQPTCDPKKLEQRQKAIKWLVSPDASSFMTTATATLKKIPDLDRLLQKIHTIGLKYRSEKHPDSRAIFFDTIKTNQKKIAELLAAIDGFKLCNKLRKEYIKVQKEGEGCELLDELLGNEQEMEEVDENIYFFEKMFDRSTAMKDGKIVPNAGCDEEYDEALNRVKEALNELNDYKDSVAKKYSCSIKFVDSGKVKYLLEMPENTKVSSSFELKSRRKGFIRYSTPDSEQLVAALDAVEKEKSKLGDDATRRVFEQFGHKNPIWLETVKLVSSFDVLTSLALFAKSSPFEMCMPEFDFNATDPYLIVDKGVHPCLALQSRNEVTQTTSFIANSTTMGASEAAVMLLTGPNMGGKSTLMRQTAVLAILAHIGSMVPAFSMRLTPIDRIFTRIGANDRIMCGESTFFIELKETDIMLKNATKHSLLLVDELGRGTSTFDGTAIASAVLQKISDDLACRTFFSTHYHSICDSFTNHPNVRLAHMKCVVDKENNEDPTMEDVTFLYELESGICPKSYGFYAAKLAGIDHQVVRNAYLESNKFASNLIIDPKIRHLVECARDDNFDVGELKRMIEAI | not soluble
MVRIIVKNVSKVFKKGKVVALDNVNINIENGERFGILGPSGAGKTTFMRIIAGLDVPSTGELYFDDRLVASNGKLIVPPEDRKIGMVFQTWALYPNLTAFENIAFPLTNMKMSKEEIRKRVEEVAKILDIHHVLNHFPRELSGAQQQRVALARALVKDPSLLLLDEPFSNLDARMRDSARALVKEVQSRLGVTLLVVSHDPADIFAIADRVGVLVKGKLVQVGKPEDLYDNPVSIQVASLIGEINELEGKVTNEGVVIGSLRFPVSVSSDRAIIGIRPEDVKLSKDVIKDDSWILVGKGKVKVIGYQGGLFRITITPLDSEEEIFTYSDHPIHSGEEVLVYVRKDKIKVFEKN | soluble
MVVISVIAIVLLLVYLDDKLGQFIFRNGRKTVVYPERRSDISLYINGRHLFSDYFAELGRARDHIHVLFYIIKNDETSAPFFQILKEKAAAGVKVRVLTDWVGSFGLPKALIRSLEESGVEFAYARKPRFPFFIYRLNRRNHRKITVIDGRVGYIGGFNIGREYNGKDANFGEWRDYHLKVNGEGVHDLQEQFLHDWEEATGRTVPDKHRYFPPLPAGAIRHQLVATNGAALEEQFIEVIRQAKKEIMIGSPYFIPSRPLFNELMQALRRGVRVTVLVPLKADHLFVKEAAYPYFYRLLKAGARIYRFYQGFYHAKTLVIDEEWCDVGTANFDRRSLFLNGEINCYVFDRGFTRLVKRAIERDLLRRRAADGRLLAKTFAS | not soluble
MSLGEDEEKAFIVGTVQAIFFENPSNFYKVVLVNVTDTNTDYLEKEIVVTGSFGQVQEEEPYRFFGHFVDHPRYGRQFQVDSYQQERPTSASGVVNYLSSDKFPGIGKRTAEKIVEVLGESAIDRIIDDPSVLEEVTVLNEKKRQVIVETIRLNHGMEQVIVGLNRYGFGSQLAFSIYQTYQEETLSVIQENPYQLVEDIEGVGFKRADNIAEQIGIQADSAVRIRAAILHEVFEHSIRSGNTYVQADVLLEEAIRTLEASRPVEISPDQVANEIITLVEHGKIQQEETKLFENSLYFSEWGIGTSIQRLLSRKKEIHYEEEEVQKNIRMIEKRLNIQYGDSQQAAIEEAIKSPLFILTGGPGTGKTTVINGIVSLFAELNGLSLDLKDYTQEMFPILLAAPTGRAAKRMNETTGLPASTIHRLLGLTGREKNPSLTAKELEGGLLIVDEMSMVDTWLANTLLKAIPTNMQVIFVGDKDQLPSVGPGQVLHDLLQINEIPKCELNEIYRQGDGSSIIPLAHEIKEGKLPADFQKNQKDRSFFASDIGHIEEYIRQIVTKAKAKGFTPQDIQVLAPMYRGAAGIDALNKMMQEIFNPNDGKKKEVKWNDTVYRIGDKVLQLVNTPELNVFNGDMGEIVGITLAKDSEDKVDELVLQFDNNEVTYKRNEWNKITLSYCCSIHKAQGSEFRMVLLPMVHQYSRMLQRNLLYTAVTRSKELLILLGEVSAFETCVKNESASRMTMLKERIVNAEQEGHHHHHH | soluble
MSLDDSVFVGHLKDVTGATGFVGKLYGEGVNDALVWINAHGGIDGTRLDFESVDYAYEVPRAIALYKKWTSQNKMVALQGWGTGDTEALISFVAKDKIPVLSGSYSGHLTDPTGKNPKTQKPAPYNFFYGPSYSDACRALVQWAEGDWKAKGKEGKPKFIHAGDNHPYPNAPKEACADFATELGFEVLPPVVVSLKPGDFKAQCLTIKQSGANYVYVANLGPSVVSLVKSCKTVGTDAQYMANIWGGDSETQKTLGADGDGYVFVAANAFWGDDAPGLALVREIAGSETPRTHHYIRGVCSTFYMKEAMEWAKAHGGLTGESIRNAMYARKDWVPKGLEGVCIPSTWTPEDHRGMTKVFIYQMQNGSEIHKIAETDLPRRDDWLGYEGHHHHHH | not soluble
GDQRFDVLITGGTLVDVVTGELRPADIGIVGALIASVHEPASRRDAAQVIDAGGAYVSPGLIDTHMHIESSMITPAAYAAAVVARGVTTIVWDPHEFGNVHGVDGVRWAAKAIENLPLRAILLAPSCVPSAPGLERGGADFDAAILADLLSWPEIGGIAEIMNMRGVIERDPRMSGIVQAGLAAEKLVCGHARGLKNADLNAFMAAGVSSDHELVSGEDLMAKLRAGLTIELRGSHDHLLPEFVAALNTLGHLPQTVTLCTDDVFPDDLLQGGGLDDVVRRLVRYGLKPEWALRAATLNAAQRLGRSDLGLIAAGRRADIVVFEDLNGFSARHVLASGRAVAEGGRMLVDIPTCDTTVLKGSMKLPLRMANDFLVKSQGAKVRLATIDRPRFTQWGETEADVKDGFVVPPEGATMISVTHRHGMAEPTTKTGFLTGWGRWNGAFATTVSHDSHNLTVFGGNAGDMALAANAVIGTGGGMAVASEGKVTAILPLPLSGLVSDAPLEEVARAFEDLREAVGKVVEWQPPYLVFKACFGATLACNIGPHQTDMGIADVLTGKVMESPVIEV | not soluble
MRDALHVTADDADATDDAIPDSRETGVTGVVLAGGLSTRLGHDKAVIRLHGEQGPDLLVRTAALLEPLVDEVWISCRPGRCVTGPYLRIYDEVQGLGPFGGVMTALRAAQGPVLVLSCDLPFMERTLLERLLERRGARHPEALMTTFRQEETGFIESLVAVYEYACLPFFEDALTDGVHKLSRVIPAERREDIVYTQNEALPFFNVNYPADLEMARRIIGALLEHHHHHH | not soluble
MGSDKIHHHHHHMGILQTMFIGFDYGTANCSVAVMRENTPQLLTLENGSTLLPSMLCAPTREAVSEWLYRHHDVPTHSDENQALLRRAIAANRDEDIEVLRNSVQFGLASLQQYVEDPQEVYFVKSPKSFLGASGLKPQQVALFEDLVCAMMLHIKLQAESQLPEQIDQAVIGRPINFQGLGGDEANAQAQGILERAAHRAGFRDVVFQFEPVAAGLDFEATLSEEKRVLVVDIGGGTTDCSLLLMGPQWRERADRQQSLLGHSGCRIGGNDLDIALAFKCLMPLLGMGGETEKGTALPILPWWNAVAINDVPAQSDFYSTANGRLLNDLLRSARDADKVALLLKVWRQRLSYRLVRSAEESKIALSSAASVETALPFIQDDLATAIAQQGLEAALDQPLTRIMEQVRLALDSSQTTPDVIYLTGGSARSPLIKKALAAQLPGIPLAGGDDFGSVTAGLARWAQVVFR | not soluble

From the DeepSol protein solubility set
